Source: PMC4357730

Experiments:
[1] = system: hTDG-N140A (human); assay: AFM; settings: AFM: 25 mM HEPES pH 7.5, 25 mM Na acetate, 10 mM Mg acetate, RT, 2-AP hTDG: 20 mM HEPES pH 7.0, 0.2 mM EDTA, 2.5 mM MgCl2, 100 mM NaCl, 25 C, 2-AP hOGG1: 50 mM …, scale: specificity S
[2] = target: hTDG-R275A R275A (human) (UniProt Q13569); assay: AFM; settings: dUF at insert position 9 opposite G (non-cleavable G:U analog); AFM: 25 mM HEPES pH 7.5, 25 mM Na acetate, 10 mM Mg acetate, RT; 2-AP hTDG: 20 mM HEPES pH 7.0, 0.2 mM EDTA, 2.5 mM MgCl2, 100 mM NaCl, 25 C; 2-AP hOGG1: 50 mM …; scale: specificity S
Chain of hTDG-R275A R275A (human) (Q13569 whole entry R275A): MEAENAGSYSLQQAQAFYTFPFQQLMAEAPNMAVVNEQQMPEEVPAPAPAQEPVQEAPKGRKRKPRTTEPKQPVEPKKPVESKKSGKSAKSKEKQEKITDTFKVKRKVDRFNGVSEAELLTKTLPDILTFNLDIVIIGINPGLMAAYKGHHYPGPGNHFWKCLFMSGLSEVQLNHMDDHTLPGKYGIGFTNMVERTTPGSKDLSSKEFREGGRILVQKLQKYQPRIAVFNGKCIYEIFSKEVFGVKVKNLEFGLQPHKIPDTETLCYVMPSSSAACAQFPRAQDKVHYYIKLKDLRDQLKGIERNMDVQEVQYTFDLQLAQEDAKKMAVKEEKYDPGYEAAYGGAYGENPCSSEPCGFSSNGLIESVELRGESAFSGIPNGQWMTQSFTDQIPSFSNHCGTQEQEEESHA

549 bp G:T DNA
binding signal [1]: 305

549 bp G:U DNA
binding signal ([1]; dU at insert position 9 opposite G): 163

549 bp G:UF DNA
binding signal [2]: 358
